Experimental findings from PMC10603098 are described below.

The target of experiment [1] is GluA1 E651K/GluA2(R) E658K AMPA receptor heteromer (rat) (UniProt P19490).
The target in experiment [2] is GluA1/GluA2(R) E658K AMPA receptor heteromer (rat) (UniProt P19490).
Experiment [3] concerns the target GluA1/GluA2(R) AMPA receptor heteromer, wild type (rat) (UniProt P19490).
In experiment [4] the target is GluA1 E651K/GluA2(R) AMPA receptor heteromer (rat) (UniProt P19490).
In experiment [5] the target is homomeric GluA2Q_(flip) E658K AMPA receptor (rat) (UniProt P19491).
Experiment [6] addresses homomeric GluA2Q_(flip) AMPA receptor, wild type (rat) (UniProt P19491).
Experiment [7] deals with GluA tetramers (sum of all co-purified GluA1-4 proteins divided by four) (rat (endogenous in rat brain)). The experiment in a line: affinity purification with mass spectrometry; multi-epitope AP-MS: three polyclonal anti-GSG1L antibodies on protein A Dynabeads, 2 h; membranes of adult (P59) rat brain solubilised in CL-47; GSG1L KO rats as negative control; minimum tnR of 0.25 as indicator of specific interaction.

Turning to “mouse GSG1L (co-expressed, +GSG1L) (from UniProt D3Z7H4 1-322) (natural protein)”, the single time constant of recovery from desensitization of heteromers with EK on both GluA1 and GluA2, co-expressed with GSG1L in experiment [1] worked out at 130 ms. In addition, in experiment [2], the fast time constant of recovery from desensitization of heteromers with EK on GluA2 only, co-expressed with GSG1L came out at 80.6 ms and the slow time constant of recovery from desensitization of heteromers with EK on GluA2 only, co-expressed with GSG1L was 446 ms. In experiment [3], the fast time constant of recovery from desensitization of GluA1/A2 heteromers co-expressed with GSG1L was 23.7 ms and the slow time constant of recovery from desensitization of GluA1/A2 heteromers co-expressed with GSG1L is 548 ms. Further, the time constant of recovery from desensitization (mono-exponential) of heteromers with EK on GluA1 only, co-expressed with GSG1L in experiment [4] is 338 ms. In addition, in experiment [5], the single time constant of recovery from desensitization of GluA2 E658K co-expressed with GSG1L (the mutation eliminated the ability of GSG1L to slow recovery) was 48 ms. Moreover, in experiment [6], the fast time constant of recovery from desensitization (τ (recovery), two-pulse protocol, 10 mM L-Glu, outside-out patches of HEK293T/17 cells co-expressing GluA2 and GSG1L) came out at 37.5 ms; the slow time constant of recovery from desensitization (τ (recovery), two-pulse protocol, 10 mM L-Glu, outside-out patches of HEK293T/17 cells co-expressing GluA2 and GSG1L) amounted to 322 ms.

Substance “germ cell-specific gene 1-like protein (GSG1L) (from UniProt D3ZK93 1-322) (natural protein)” gave a stoichiometry N (GSG1L per GluA tetramer) in experiment [7] of 1.74.
